Test results as given in the supplement of paper PMC7125110.
± gives the standard error. For some of these results: This sample holds only a part of the variants without activity.

B1: glmS ribozyme (parent)
chain: AUAAAAGCGCCAGAACUACAGAAAUGUAGUUGACGAGGAGGAGGUUUAUCGAAUUUUCGGCGGAUGCCUCCAAA

Tests used:
Details in all cases: with glucosamine-6-phosphate
[1] = variants of: B1; test: kcat; higher = faster cleavage; RNA array
How it was run: (§1)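 Glucosamine-6-phosphate (40 μM to 10 mM) in HEPES/KCl/Mg(OAc)2 buffer was flowed over sequenced MiSeq chips, and tiles were imaged over ~14 h. Barcoded ribozyme variants there had been transcribed in situ by E. coli RNA polymerase and were tracked through a hybridised Cy3 probe at 37 °C. One- or two-exponential decay fits to per-tile medians, normalised to baseline and to non-cleaving reference variants, gave kobs. kcat and KM came from weighted Michaelis–Menten fits across concentrations.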

[2] = variants of: B1; test: self-cleavage kobs at 160 uM GlcN6P; higher = faster cleavage; RNA array
How it was run: as §1

[3] = variants of: B1; test: self-cleavage kobs at 640 uM GlcN6P; higher = faster cleavage; RNA array
How it was run: as §1

[4] = variants of: B1; test: self-cleavage kobs at 2500 uM GlcN6P; higher = faster cleavage; RNA array
How it was run: as §1

[5] = variants of: B1; test: self-cleavage kobs at 10000 uM GlcN6P; higher = faster cleavage; RNA array
How it was run: as §1

[6] = variants of: B1; test: KM; higher = weaker cofactor use; RNA array
How it was run: as §1

[7] = variants of: B1; test: self-cleavage kobs at 40 uM GlcN6P; higher = faster cleavage; RNA array
How it was run: as §1

| Variant | kcat [1] [s⁻¹] | self-cleavage kobs at 160 uM GlcN6P [2] [s⁻¹] | self-cleavage kobs at 640 uM GlcN6P [3] [s⁻¹] | self-cleavage kobs at 2500 uM GlcN6P [4] [s⁻¹] | self-cleavage kobs at 10000 uM GlcN6P [5] [s⁻¹] | KM [6] [µM] | self-cleavage kobs at 40 uM GlcN6P [7] [s⁻¹] |
| --- | --- | --- | --- | --- | --- | --- | --- |
| G44A G66A | 0.000681 ± 0.00022 | 4.37e-05 ± 1.7e-05 | 0.000259 ± 4.6e-05 | 0.000848 ± 0.00022 | 0.000527 ± 0.0001 |  |  |
| G44C A53C | 6.93e-05 ± 2.5e-06 |  |  | 3.4e-05 ± 1e-05 | 5.46e-05 ± 9.3e-06 | 2650 ± 300 |  |
| U31C G41A | 9.11e-05 ± 9.7e-06 |  | 6.76e-05 ± 1.5e-05 | 9.23e-05 ± 1.6e-05 | 8.13e-05 ± 1.2e-05 |  |  |
| A53U C70A | 0.000125 ± 2.5e-05 | 7.24e-05 ± 1.2e-05 | 0.000117 ± 1.3e-05 |  |  |  | 4.52e-05 ± 7.1e-06 |
| A12G A15C | 0.000514 ± 0.00013 |  |  | 7.79e-05 ± 1e-05 | 0.000205 ± 2.2e-05 |  |  |
| C8U C50G | 0.000208 ± 1.2e-05 | 0.000167 ± 2.4e-05 | 0.000188 ± 3.3e-05 | 0.000229 ± 3.5e-05 | 0.000178 ± 7.7e-05 | 31 ± 8 | 0.00012 ± 2e-05 |
| C16G U55G | 0.0033 ± 0.0015 | 0.000227 ± 5.1e-05 | 0.000789 ± 0.00012 | 0.00148 ± 0.00031 | 0.00368 ± 0.00057 |  | 0.000147 ± 2.3e-05 |
| G51A U69G | 5.93e-05 ± 1.1e-05 | 4.53e-05 ± 1.5e-05 | 6.08e-05 ± 1.6e-05 | 5.96e-05 ± 1.5e-05 |  |  |  |
| G63A C68U | < 1e-05 |  |  |  |  |  | < 1e-05 |
| G40A A48U | 0.000176 ± 1.7e-05 |  | 2.83e-05 ± 8.5e-06 | 9.03e-05 ± 1.2e-05 | 0.000133 ± 1.7e-05 | 2780 ± 590 |  |
| U45A U65G | 0.00585 ± 0.001 |  | 0.000543 ± 0.00016 | 0.00235 ± 0.00063 | 0.00411 ± 0.00045 | 4290 ± 1100 | 5.91e-05 ± 7.9e-06 |
| G41U U47A | 0.000627 ± 0.00021 | 0.000127 ± 3.9e-05 | 0.000232 ± 5.2e-05 | 0.000656 ± 0.00012 | 0.000706 ± 0.00012 |  | 7.19e-05 ± 1.3e-05 |
| A39C U54C | 0.00666 ± 0.0019 |  | 0.00125 ± 0.0003 | 0.00481 ± 0.00084 | 0.00475 ± 0.00095 | 2400 ± 1100 | 0.000105 ± 2.5e-05 |
| U46G C68G | 0.000103 ± 4e-06 |  | 5.11e-05 ± 1.8e-05 | 7.97e-05 ± 1.8e-05 | 9.69e-05 ± 1.7e-05 | 678 ± 110 |  |
| A39G A64C | 0.000357 ± 5.4e-05 |  | 5.91e-05 ± 2.4e-05 | 0.000202 ± 5.3e-05 | 0.000267 ± 5.3e-05 | 2860 ± 950 |  |
| A6G A12G | 1.13e-05 ± 1.3e-06 |  |  |  |  |  |  |

| Variant | kcat [1] [s⁻¹] | self-cleavage kobs at 160 uM GlcN6P [2] [s⁻¹] | self-cleavage kobs at 640 uM GlcN6P [3] [s⁻¹] | self-cleavage kobs at 2500 uM GlcN6P [4] [s⁻¹] | self-cleavage kobs at 10000 uM GlcN6P [5] [s⁻¹] | KM [6] [µM] | self-cleavage kobs at 40 uM GlcN6P [7] [s⁻¹] |
| --- | --- | --- | --- | --- | --- | --- | --- |
| A15C G40C | 0.000353 ± 6.6e-05 | 5.62e-05 ± 7.5e-06 | 0.000109 ± 9.3e-06 | 0.000234 ± 2.4e-05 | 0.000343 ± 3.9e-05 | 1230 ± 420 |  |
| G37A U46A | 0.000136 ± 4.3e-06 |  | 2.37e-05 ± 7.5e-06 | 6.45e-05 ± 7.8e-06 | 0.000105 ± 1.1e-05 | 2840 ± 210 | < 1e-05 |
| U31G U45G | 0.00239 ± 0.00077 |  | 0.000405 ± 0.0001 | 0.00155 ± 0.00034 | 0.00164 ± 0.00042 |  |  |
| U46A G66A | 0.000792 ± 5.9e-05 |  | 0.000156 ± 3.3e-05 | 0.000321 ± 8.6e-05 | 0.00063 ± 7.9e-05 | 2830 ± 440 |  |
| A12G U31C | 0.000113 ± 7.3e-06 |  |  | 4.42e-05 ± 9.5e-06 | 7.95e-05 ± 1.1e-05 | 4090 ± 630 |  |
| A48U U54G C70U | 0.000549 ± 9.5e-05 |  | 0.000139 ± 2.9e-05 | 0.000369 ± 9.6e-05 | 0.000445 ± 0.00012 | 1760 ± 550 |  |
| G29U G41A | 0.000207 ± 3.7e-05 |  | 5.62e-05 ± 1.8e-05 | 0.000155 ± 3.1e-05 | 0.000164 ± 4e-05 | 1480 ± 620 | < 1e-05 |
| U30G U46A G66C | 0.000292 ± 0.00014 |  | 6.55e-05 ± 2.5e-05 | 0.00038 ± 8.8e-05 | 0.000218 ± 5.4e-05 |  |  |
| G37C G60A C68U | 1.98e-05 ± 7.3e-06 |  |  |  |  |  |  |
| C10U A33U U54C | 4.81e-05 ± 4.1e-06 |  |  |  | 3.5e-05 ± 1.5e-05 | 3720 ± 750 |  |
| U69A C71G | 3.77e-05 ± 9.7e-06 |  | 5.27e-05 ± 1.5e-05 | 4.01e-05 ± 9.2e-06 |  |  |  |
| A15C U30C | 0.000215 ± 7.8e-05 |  | 8.27e-05 ± 2.3e-05 | 8.21e-05 ± 1.5e-05 | 0.000177 ± 2.6e-05 |  |  |
| G32A G66A | 0.00312 ± 0.0006 |  | 0.000269 ± 6.9e-05 | 0.000911 ± 0.00018 | 0.0019 ± 0.00044 | 6290 ± 1700 |  |
| G63U | < 1e-05 | < 1e-05 |  | < 1e-05 | < 1e-05 |  | < 1e-05 |
| A14G G63U | < 1e-05 | < 1e-05 | < 1e-05 | < 1e-05 |  |  | < 1e-05 |
| A14U U56A | 0.00382 ± 0.0017 | 0.00029 ± 4.9e-05 | 0.000692 ± 0.00012 | 0.00186 ± 0.00034 | 0.00407 ± 0.00084 |  | 0.000146 ± 3.2e-05 |
